Measured values taken from patent US6812017B2, “Mammalian secreted group IIF phospholipase A2” (Centre National de la Recherche Scientique - CNRS, priority 2000, dated 2004).

Tests used:
[1] = Substrate specificity, fatty acid binding protein assay on phospholipid vesicles; format: biochemical; conditions: 30 μM vesicles, 1 mM Ca2+, 37° C.
Protocol: (§1) FIGS. 4A-4C represent the enzymatic properties of recombinant hGIIF sPLA2. […] Full experimental details are provided in materials and methods.
(§2) The Ca^2+ and pH dependencies of hGIIF sPLA2 were measured with POPC vesicles containing 1-palmitoyl-2-[1-^3H]palmitoyl-sn-glycero-3-phospho9choline vesicles and POPG vesicles containing 1-palmitoyl-2-[1-^3H]palmitoyl-sn-glycero-3-phosphoglyceril, respectively. Substrate specificity studies were carried out using a slightly modified assay with the fatty acid binding protein [7]. Reaction mixtures contained 30 μM POPC, POPG, or POPS (1-Palmitoyl-2-Oleoyl-sn-Glcero-3-phosphoserine) large […] vesicles (0.1 μm, prepared by extrusion as described [222[) in Hanks' balanced salt solution with 1 mM Ca^2+, 1 mM Mg^2+, 9.7 μg fatty acid binding protein, and 1 μm 11-dansyl-undecanoic acid at 37° C. Assays were calibrated by adding a known amount of oleic acid to the complete assay in the absence of enzyme.

[2] = pH-dependence of the hydrolysis of phosphatidylglycerol vesicles; format: biochemical
Protocol: as §1, §2

[3] = Ca2+-dependence of the hydrolysis of phosphatidylcholine vesicles; format: biochemical
Protocol: as §1, §2

[4] = from references [8], [16]; cited from earlier work

B1: hGIIF sPLA2: novel human secreted group IIF phospholipase A2, recombinantly expressed in E. coli; 168 amino acid sequence, mature protein 148 residues (protein)
chain: MKKFFTVAILAGSVLSTAHGSLLNLKAMVEAVTGRSAILSFVGYGCYCGLGGRGQPKDEVDWCCHAHDCCYQELFDQGCHPYVDHYDHTIENNTEIVCSDLNKTECDKQTCMCDKNMVLCLMNQTYREEYRGFLNVYCQGPTPNCSIYEPPPEEVTCSHQSPAPPAPP
rate of POPC hydrolysis relative to rate of POPG [1]: ~6% | relative rates for the hydrolysis of POPG, POPS, and POPC vesicles [1]: highest with anionic POPG vesicles | rate of hydrolysis of phosphatidylglycerol vesicles versus pH [2]: increases with pH in the range 5-7 | apparent KCa2+ ([3]; PC vesicles as substrate, hyperbolic dependence on Ca2+ concentration): 140 ± 40 µM | Ca2+ dependence of hydrolysis of phospholipid vesicles ([3]; phospholipid vesicles): strictly Ca^2+ dependent

B2: hGIIA sPLA2: human group IIA secreted phospholipase A2 (protein)
chain: MKTLLLLAVIMIFGLLQAHGNLVNFHRMIKLTTGKEAALSYGFYGCHCGVGGRGSPKDATDRCCVTHDCCYKRLEKRGCGTKFLSYKFSNSGSRITCAKQDSCRSQLCECDKAAATCFARNKTTYNKKYQYYSNKHCRGSTPRC
preference for POPG versus POPC vesicles [4]: greater than 10^5 fold

B3: hGV: human group V secreted phospholipase A2 (protein)
chain: MKGLLPLAWFLACSVPAVQGGLLDLKSMIEKVTGKNALTNYGFYGCYCGWGGRGTPKDGTDWCCWAHDHCYGRLEEKGCNIRTQSYKYRFAWGVVTCEPGPFCHVNLCACDRKLVYCLKRNLRSYNPQYQYFPNILCS
preference for POPG versus POPC vesicles [4]: 3 fold

B4: hGX: human group X secreted phospholipase A2 (protein)
chain: MLLLLLPSLLLLLLLPGPGSGEASRILRVHRRGILELAGTVGCVGPRTPIAYMKYGCFCGLGGHGQPRDAIDWCCHGHDCCYTRAEEAGCSPKTERYSWQCVNQSVLCGPAENKCQELLCKCDQEIANCLAQTEYNLKYLFYPQFLCEPDSPKCD
preference for POPG versus POPC vesicles [4]: 10 fold
